Self-cleavage data for 167 variants are collected here from the RNAGym collection of RNA variant scans (doi:10.7554/elife.80360).

To fix the notation:
B1: Hairpin Ribozyme (parent)
chain: GUCCUCUUUCACGUGCGCGUGAAAGAGAGAAGUGAACCAGAGAAACACACGUUGUGGUAUAUUACCUGGUA

In this series the parent is B1. The series can be described thus: self-cleavage, relative activity (ratio to wild type); higher = more cleavage; co-transcriptional.
On to C37U U53A, for which the self-cleavage is 0.775.

Take C37U U53G: the self-cleavage was 0.364.

Consider A36C A71U, for which the self-cleavage came out at 0.654.

With A36C A71C, the self-cleavage is 0.975.

Regarding A36C A45C, the self-cleavage was determined as 0.236.

In the case of C37A A45C, the self-cleavage came out at 0.189.

Consider A36U C50A, for which the self-cleavage came out at 0.242.

Turning to A35U U67A, the self-cleavage was determined as 0.126.

Turning to A35U U67G, the self-cleavage worked out at 0.161.

Regarding A35C G54A, the self-cleavage was 0.483.

On to A35C G54U, for which the self-cleavage was determined as 0.56.

For the variant C37G A45G, the self-cleavage was determined as 0.103.

For C37G A45U, the self-cleavage was 0.188.

With A36C U55C, the self-cleavage stood at 0.0703.

Take A35G C46A: the self-cleavage came out at 0.125.

In the case of A36G U52G, the self-cleavage was found to be 0.882.

Consider A35U A59U, for which the self-cleavage was found to be 0.117.

A36G G51A: the self-cleavage turned out to be 0.943.

In the case of C37U C50A, the self-cleavage was found to be 0.116.

For C37U C50U, the self-cleavage was 0.289.

A35G U53A: the self-cleavage was found to be 1.25.

On to A36G A41C, for which the self-cleavage turned out to be 1.1.

On to A35C C50G, for which the self-cleavage came out at 0.37.

Take A35C C50U: the self-cleavage came to 0.438.

As to C37A G51U, the self-cleavage came out at 0.563.

With A36C G42U, the self-cleavage is 0.116.

Regarding A36C G42A, the self-cleavage is 0.0682.

With A36C U52G, the self-cleavage turned out to be 0.558.

A36C U52A: the self-cleavage is 0.768.

C37A A43G: the self-cleavage was 0.0981.

In the case of A35C G40U, the self-cleavage came out at 0.149.

On to A35U A64G, for which the self-cleavage turned out to be 0.465.

Turning to A35U A64U, the self-cleavage was determined as 0.178.

As to A36G A64U, the self-cleavage turned out to be 0.138.

Regarding A36G A64G, the self-cleavage came to 0.492.

A36G U63C: the self-cleavage turned out to be 0.201.

Regarding A36G U63A, the self-cleavage stood at 0.23.

With A36G C50A, the self-cleavage amounted to 0.34.

For C37A A49U, the self-cleavage came out at 0.0951.

Take C37U G51U: the self-cleavage is 0.81.

Turning to A35G C65A, the self-cleavage was 0.867.

With C37G U53C, the self-cleavage came out at 0.586.

In the case of C37G U53G, the self-cleavage is 0.238.

Regarding C37G A47U, the self-cleavage stood at 0.113.

For A35G A39G, the self-cleavage was 0.348.

On to A36C U70A, for which the self-cleavage was 0.958.

For the variant C37U C38A, the self-cleavage worked out at 0.145.

For A35U C38G, the self-cleavage turned out to be 0.235.

Take A35C G69U: the self-cleavage was 0.189.

Turning to C37A A39C, the self-cleavage was 0.128.

For C37G A41C, the self-cleavage was 0.282.

For C37G A41G, the self-cleavage amounted to 0.369.

G34U U67A: the self-cleavage was determined as 0.876.

G34U U67C: the self-cleavage was 0.976.

A36U U53C: the self-cleavage is 0.593.

As for C37G U70C, the self-cleavage was 0.531.

For A36U A64C, the self-cleavage worked out at 0.0976.

For A36U A64G, the self-cleavage worked out at 0.219.

A36G A45C: the self-cleavage was found to be 0.189.

In the case of A35C U67G, the self-cleavage came to 0.278.

For A35C C65A, the self-cleavage amounted to 1.08.

For the variant A36U G40U, the self-cleavage was 0.126.

Take A36U G40C: the self-cleavage is 0.101.

With A35C C66U, the self-cleavage was 0.558.

For A36G U62A, the self-cleavage was 0.179.

Take A35U A44U: the self-cleavage worked out at 0.0832.

Take A35U A44C: the self-cleavage is 0.267.

On to A35C C46A, for which the self-cleavage worked out at 0.0748.

For the variant C37A A71G, the self-cleavage was 0.323.

For A35U U53A, the self-cleavage turned out to be 0.785.

Consider A36C A64U, for which the self-cleavage worked out at 0.309.

For A35G A61G, the self-cleavage worked out at 0.185.

For C37G A49U, the self-cleavage was found to be 0.153.

Consider A35G C48A, for which the self-cleavage came out at 0.198.

Take C37A C38U: the self-cleavage was determined as 0.0834.

As to C37A C38A, the self-cleavage was 0.144.

As for C37A G68U, the self-cleavage was 0.332.

C37G C38A: the self-cleavage was determined as 0.152.

C37G C38G: the self-cleavage is 0.0384.

Turning to A35G U58C, the self-cleavage was 1.11.

For A36C C48U, the self-cleavage worked out at 0.0598.

For the variant A36U C65A, the self-cleavage amounted to 0.502.

With A35U C46A, the self-cleavage was 0.16.

On to A35U C46U, for which the self-cleavage worked out at 0.143.

For C37A C48G, the self-cleavage stood at 0.143.

On to C37A C48U, for which the self-cleavage stood at 0.0819.

As to A35C A64U, the self-cleavage was 0.192.

With A36C C37U, the self-cleavage came out at 0.148.

Consider A36C C37A, for which the self-cleavage stood at 0.185.

With A36U A39G, the self-cleavage came to 0.344.

On to A36U A71G, for which the self-cleavage was found to be 0.829.

As to A36U A71U, the self-cleavage came out at 0.524.

C37A G42U: the self-cleavage stood at 0.165.

As to A35U A49U, the self-cleavage worked out at 0.155.

As for C37G A64G, the self-cleavage is 0.15.

Regarding A36G U53C, the self-cleavage worked out at 1.08.

Turning to A35G G51C, the self-cleavage is 0.689.

For C37U G40C, the self-cleavage came to 0.172.

On to C37G C50U, for which the self-cleavage stood at 0.214.

In the case of C37G C50A, the self-cleavage was 0.14.

Consider C37A U60G, for which the self-cleavage stood at 0.171.

In the case of C38A A39U, the self-cleavage came to 0.206.

With A36U G42A, the self-cleavage stood at 0.115.

Take A36C A61C: the self-cleavage worked out at 0.116.

As for C37A U58C, the self-cleavage came to 0.349.

On to C37A U58G, for which the self-cleavage worked out at 0.269.

Regarding C37G U60A, the self-cleavage is 0.197.

Turning to C37G U60G, the self-cleavage came to 0.245.

Consider A35U U62C, for which the self-cleavage was determined as 0.0853.

With A35U U62G, the self-cleavage was 0.

With C37U A64U, the self-cleavage amounted to 0.242.

In the case of C37U A64G, the self-cleavage was determined as 0.456.

With A35U A61G, the self-cleavage was 0.137.

As to A36C U60C, the self-cleavage amounted to 0.794.

A36C U60G: the self-cleavage turned out to be 0.361.

In the case of C37U G68A, the self-cleavage turned out to be 0.257.

Regarding C37G C65U, the self-cleavage was determined as 0.334.

Regarding C37G C65A, the self-cleavage was 0.179.

As to A35U A45C, the self-cleavage was 0.112.

Regarding A35U A45G, the self-cleavage came to 0.0965.

Turning to C37U U58A, the self-cleavage was 0.48.

As to C37U U58G, the self-cleavage came out at 0.553.

Regarding A35U A36C, the self-cleavage came to 0.264.

For A35U A36G, the self-cleavage is 0.901.

Regarding A35G U60G, the self-cleavage came out at 0.443.

As for A36U A59G, the self-cleavage amounted to 0.19.

For A36C C66A, the self-cleavage amounted to 0.268.

With A36U C37U, the self-cleavage turned out to be 0.21.

Take A36U C37A: the self-cleavage is 0.184.

For C37G C46G, the self-cleavage stood at 0.211.

As for C37G C46A, the self-cleavage amounted to 0.174.

On to C37G C46U, for which the self-cleavage was found to be 0.122.

Take C37A U62C: the self-cleavage amounted to 0.196.

As to A35C U60G, the self-cleavage came to 0.649.

A35C U60A: the self-cleavage came out at 0.664.

As to A35C U60C, the self-cleavage was 1.14.

Regarding A36G C65G, the self-cleavage amounted to 0.138.

As for A36G C65U, the self-cleavage amounted to 0.267.

Consider A36G A43G, for which the self-cleavage came to 0.0267.

A36U A44U: the self-cleavage came to 0.285.

Turning to A36C A59U, the self-cleavage is 0.157.

Take C37G U58C: the self-cleavage was 0.335.

On to C37G U58A, for which the self-cleavage stood at 0.202.

A36C U67G: the self-cleavage was 0.175.

Consider A36C U67C, for which the self-cleavage is 0.102.

For the variant A36C U67A, the self-cleavage was 0.174.

C37G G68A: the self-cleavage came out at 0.14.

Take A35G A64C: the self-cleavage was 0.174.

Take A35G A49C: the self-cleavage stood at 0.12.

Turning to A35G A49G, the self-cleavage was 0.433.

Turning to C37G U67A, the self-cleavage turned out to be 0.263.

With A35U G56A, the self-cleavage was determined as 0.143.

On to A35U G56U, for which the self-cleavage turned out to be 0.221.

For A35U C66A, the self-cleavage was 0.154.

Consider A36C G40A, for which the self-cleavage came out at 0.162.

Consider C38A, for which the self-cleavage was determined as 0.171.

Turning to A36G A47G, the self-cleavage is 0.106.

For A36G G68A, the self-cleavage was 0.306.

On to A36G G68U, for which the self-cleavage turned out to be 0.237.

Regarding A35U A71U, the self-cleavage is 0.978.

Turning to A35U A71G, the self-cleavage stood at 0.962.

In the case of C37U G54A, the self-cleavage stood at 0.397.

For C37U G54U, the self-cleavage came out at 0.443.

A35G C38A: the self-cleavage worked out at 0.162.

For A36C U63C, the self-cleavage is 0.259.

Take A36U G68U: the self-cleavage is 0.118.

Regarding A36G U67G, the self-cleavage was 0.19.
